Assay results as given in IntAct's records for PubMed 20067578.

Target: mp2k6_human MAP2K6 (UniProt P52564)
Chain of UniProt P52564 (P52564 whole entry): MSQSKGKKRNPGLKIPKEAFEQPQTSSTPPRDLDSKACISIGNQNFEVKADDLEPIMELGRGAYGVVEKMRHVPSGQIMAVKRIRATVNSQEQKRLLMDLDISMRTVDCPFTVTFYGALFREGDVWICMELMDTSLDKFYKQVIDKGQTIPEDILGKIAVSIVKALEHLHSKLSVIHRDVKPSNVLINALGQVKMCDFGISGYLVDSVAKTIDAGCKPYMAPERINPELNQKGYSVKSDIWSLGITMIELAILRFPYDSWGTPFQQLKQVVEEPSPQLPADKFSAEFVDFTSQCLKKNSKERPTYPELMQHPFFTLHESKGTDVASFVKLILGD

effect of a mutation on the interaction: increasing interaction
Substance: Leucine-rich repeat serine/threonine-protein kinase 2 (Homo sapiens), Q5S007 R1441C
